We go through 2 molecules from publication PMC10938605 (Science Advances, 2022).

Assay [1] concerns the target T1, purified recombinant GST-tagged CYLD (human, UniProt Q9NQC7 1-956).
T1 sequence (looked up): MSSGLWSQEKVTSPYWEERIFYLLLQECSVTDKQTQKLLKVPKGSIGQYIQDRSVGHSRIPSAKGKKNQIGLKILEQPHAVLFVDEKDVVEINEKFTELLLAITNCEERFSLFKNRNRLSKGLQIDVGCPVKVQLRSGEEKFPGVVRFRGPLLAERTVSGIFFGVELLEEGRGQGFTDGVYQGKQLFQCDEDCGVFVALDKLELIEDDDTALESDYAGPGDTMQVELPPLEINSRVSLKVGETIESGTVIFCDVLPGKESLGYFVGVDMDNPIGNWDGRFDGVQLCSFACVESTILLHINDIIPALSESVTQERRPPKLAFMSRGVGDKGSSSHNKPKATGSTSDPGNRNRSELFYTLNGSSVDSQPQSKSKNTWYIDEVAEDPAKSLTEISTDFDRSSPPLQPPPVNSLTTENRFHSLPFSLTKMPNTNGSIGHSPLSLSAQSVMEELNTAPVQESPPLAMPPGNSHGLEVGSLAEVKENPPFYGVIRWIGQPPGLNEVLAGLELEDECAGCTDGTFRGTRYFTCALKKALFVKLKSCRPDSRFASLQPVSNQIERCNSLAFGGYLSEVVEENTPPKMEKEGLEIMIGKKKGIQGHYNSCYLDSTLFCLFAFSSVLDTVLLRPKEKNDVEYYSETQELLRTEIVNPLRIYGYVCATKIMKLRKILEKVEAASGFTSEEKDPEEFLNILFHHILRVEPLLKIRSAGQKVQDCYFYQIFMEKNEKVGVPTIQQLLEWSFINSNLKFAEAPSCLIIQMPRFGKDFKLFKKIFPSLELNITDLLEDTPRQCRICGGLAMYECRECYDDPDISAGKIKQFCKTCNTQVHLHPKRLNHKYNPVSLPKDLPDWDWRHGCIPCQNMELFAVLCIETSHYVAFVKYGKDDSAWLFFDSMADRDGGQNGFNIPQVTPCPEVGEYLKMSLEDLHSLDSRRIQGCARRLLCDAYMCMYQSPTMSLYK
Nature of the assay: pull-down.

The target in assay [2] is T2, recombinant CYLD WT (GST tag cleaved) (human, UniProt Q9NQC7 1-956).
T2 sequence (looked up): T1 sequence (looked up)
Put plainly: pull-down.

B1: recombinant PARIS (prey of the reciprocal GST pull-down) (natural protein)
chain: not shown
Consider B1, for which the binding result in assay [1] was “binds”.

B2: purified recombinant GST-tagged PARIS (natural protein)
chain: not shown
Regarding B2, the binding result in assay [2] is “binds”.
